Laboratory results: patent US7790155B2, “Calbindin-D28K protection against glucocorticoid induced cell death” (University of Medicine and Dentistry of New Jersey, priority 2002, dated 2010)
“Also recorded” adds a separate entry of the source.

Assays:
primary osteoblasts = assay: Dexamethasone induced cell death of primary osteoblasts, trypan blue uptake; assay type: cell-based, murine; details: 16 h dex. treatment (10^−6M)
Procedure: Cell viability was monitored by trypan blue exclusion. Nonadherent cells were combined with adherent cells released from the culture dish using trypsin-EDTA, resuspended in medium containing serum and collected by centrifugation. 0.04% trypan blue was added and the 150 cells per condition are counted). DNA fragmentation was measured by the TUNEL (transferase biotin-dUTP nick endlabeling). […] 104, 1363-1374; and Bellido, T., O'Brien, C. A., Roberson, P. K., and Manolagas, S. C. (1998) J. Biol. Chem. 273, 21137-21144).
In addition to MLO-Y4 cells, it will also be possible to determine the effect of dexamethasone in the presence or absence of calbindin-D28k on apoptotic cell death and on caspase 3 activity (with the methodology outlined above) using primary osteoblastic cells from calbindin-D28k KO and WT mice. Murine osteoblasts will be isolated from pups 30-72 h old from our colony of WT (C57BL6) or calbindin-D28k KO mice (cite 22 of grant, cite 111 of grant) by controlled digestion with collagenase (cite 112 of grant). Briefly calvariae, trimmed of fibrous tissue and divided in 2 are transferred to 15 ml conical sterile tubes, washed with PBS (5 ml) 3× at 37° C. (10 min/wash) in an oscillating H2O bath. Calvariae are then subjected to a series of collagenase digestions (200 μg/Ml PBS collagenase CLS2 from Worthington) in an oscillating 37° C. […]

MLO-Y4 osteocytic cells = assay: Dexamethasone induced cell death of MLO-Y4 cells transfected with calbindin-D28k expression vector (trypan blue, TUNEL, morphology); assay type: cell-based, murine; details: MLO-Y4 cells transfected with pREP4 or BSRα calbindin-D28k vector vs vector alone, 10^−6M dexamethasone, 6, 12 and 24 h
Procedure: Murine osteocytic MLO-Y4 cells (provided by Dr. Lynda Bonewald, University of Texas Health Center at San Antonio, Tex.), and primary bone cells (isolated from neonatal murine calvaria) were cultured as indicated previously (Kato, Y., Windle, J. J., Koop, B. A., Mundy, G. R., and Bonewald, L. F. (1997) J. Bone Miner Res. 12, 2014-2023) (Bellido, T., Borba, V. Z. C., Roberson, P. K., and Manolagas, S. C. (1997) Endocrinology 138, 3666-3676). All culture media contained 100 units/ml penicillin and 100 μg/ml streptomycin. Cultures were kept in a humidified atmosphere of 5% CO2 in air at 37° C.
Transient transfections of MLO-Y4 cells were carried out in 12-well culture plates using SUPERFECT®. […] After 6, 12 and 24 h, apoptosis was induced by addition of 10^−6M dexamethasone and quantified as indicated below or cell lysates collected for the analysis of calbindin-D28k by Western blotting and radioimmunoassay (cite 65 of grant).
Cell viability was monitored by trypan blue exclusion. […] 0.04% trypan blue was added and the 150 cells per condition are counted). DNA fragmentation was measured by the TUNEL (transferase biotin-dUTP nick endlabeling). […]
Data were analyzed by one-way analysis of variance, and the Student-Keuls-Newman method was used to estimate the level of significance of differences between means. […]

MC3T3-E1 cells = MC3T3-E1 cells transfected with calbindin-D28K cDNA vs empty vector; cited from earlier work
lymphocytes = details: stable expression of calbindin-D28k cDNA in lymphocytes (Dowd et al. 1992); cited from earlier work

Molecule | % of dead cells (trypan blue uptake) (primary osteoblasts; in the absence of calbindin-D28k) [%] | protection against glucocorticoid (dexamethasone) induced cell death (MLO-Y4 osteocytic cells) | protection against glucocorticoid (dexamethasone) induced cell death (MLO-Y4 osteocytic cells; listed as calbindin-D28K) | pro-apoptotic effect of TNF (nuclear fragmentation) (MC3T3-E1 cells) | % of dead cells (trypan blue uptake) (primary osteoblasts; in the presence of calbindin-D28k, p<0.05) [%] | protection against glucocorticoid induced lymphocyte cell death (lymphocytes)
C[C@@H]1C[C@H]2[C@@H]3CCC4=CC(=O)C=C[C@]4(C)[C@@]3(F)[C@@H](O)C[C@]2(C)[C@@]1(O)C(=O)CO [dex., dexamethasone, reference compound] | 23.2±3 | – | – | – | – | –
calbindin-D28k: calcium binding protein (polypeptide of SEQ ID NO:2), expressed in cells from pREP4 or BSRα calbindin-D28k expression vectors (protein, listed as Homo sapiens) MAESHLQSSLITASQFFEIWLHFDADGSGYLEGKELQNLIQELQQARKKAGLELSPEMKTFVDQYGQRDDGKIGIVELAHVLPTEENFLLLFRCQQLKSCEEFMKTWRKYDTDHSGFIETEELKNFLKDLLEKANKTVDDTKLAEYTDLMLKLFDSNNDGKLELTEMARLLPVQENFLLKFQGIKMCGKEFNKAFELYDQDGNGYIDENELDALLKDLCEKNKQDLDINNITTYKKNIMALSDGGKLYRTDLALILCAGDN | – | protection; also recorded: protected against glucocorticoid induced cell death | protection against dexamethasone induced cell death | significantly attenuated | 12.9±2.4 | protect against glucocorticoid induced lymphocyte cell death
